The values below come from patent US12679878B2, “CRF2 receptor agonists and their use in therapy” (SANOFI, priority 2020, dated 2026).

Assay [1] concerns the target T1, CRF1R receptor (anti-target) (UniProt P34998 24-415, limits assumed).
T1 sequence (looked up): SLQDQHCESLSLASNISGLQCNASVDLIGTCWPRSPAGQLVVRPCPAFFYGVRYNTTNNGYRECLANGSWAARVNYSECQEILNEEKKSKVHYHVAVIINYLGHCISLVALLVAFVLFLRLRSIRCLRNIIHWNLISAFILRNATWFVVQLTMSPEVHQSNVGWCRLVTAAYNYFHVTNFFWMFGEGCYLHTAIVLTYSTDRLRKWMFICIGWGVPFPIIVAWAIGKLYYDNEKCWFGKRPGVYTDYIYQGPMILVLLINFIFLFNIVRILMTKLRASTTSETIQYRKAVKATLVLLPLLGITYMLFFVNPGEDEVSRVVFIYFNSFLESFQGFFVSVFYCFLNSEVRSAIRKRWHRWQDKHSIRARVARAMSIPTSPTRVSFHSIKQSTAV
Put plainly: cell-based or functional assay.

Assay [2] has as its target human corticotropin-releasing factor 2α (CRF2α receptor) (human), Q13324. Description: cell-based or functional assay.

Starred links: 1 amine or outer side, 2 acyl side, 3 side chain; linkers in the order of their positions; H or OH if unused. Non-standard residues stand in square brackets, D forms with d. Groups on a side chain read outwards from the residue. No end group written: not given here. *: point of attachment. C16 diacid = O=C(O)CCCCCCCCCCCCCCC(=O)*; γGlu = O=C(O)[C@H](CCC(=O)[*:2])N[*:1]; Palmitoyl = CCCCCCCCCCCCCCCC(=O)*; AEEA = NCCOCCOCC(=O)O; Aib = CC(C)(N)C(=O)O Where only a bound is given, the exact number is not on record here.

human corticotropin-releasing factor 2α (CRF2α receptor) (human), Q13324, sequence (Q13324 20-411): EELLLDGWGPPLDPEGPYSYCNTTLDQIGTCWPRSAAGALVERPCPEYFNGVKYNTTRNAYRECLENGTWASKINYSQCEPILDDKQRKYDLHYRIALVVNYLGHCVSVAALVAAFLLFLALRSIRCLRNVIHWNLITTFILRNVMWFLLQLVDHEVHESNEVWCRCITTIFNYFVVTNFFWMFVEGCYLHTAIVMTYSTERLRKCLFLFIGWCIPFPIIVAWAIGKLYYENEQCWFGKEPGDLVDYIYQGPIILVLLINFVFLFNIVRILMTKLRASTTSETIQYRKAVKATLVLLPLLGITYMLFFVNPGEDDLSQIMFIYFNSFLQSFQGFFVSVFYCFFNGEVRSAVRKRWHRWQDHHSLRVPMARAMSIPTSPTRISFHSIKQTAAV

B1: peptide of SEQ ID NO: 194 (peptide)
peptide: IVLSLD[dV]PIGLK([γGlu-C16 diacid])QILLKQERQKK[Aib]REQAETNKQILAQV-NH2
modifications: N-terminus assumed
SMILES: CC[C@H](C)[C@H](N)C(=O)N[C@H](C(=O)N[C@@H](CC(C)C)C(=O)N[C@@H](CO)C(=O)N[C@@H](CC(C)C)C(=O)N[C@@H](CC(=O)O)C(=O)N[C@@H](C(=O)N1CCC[C@H]1C(=O)N[C@H](C(=O)NCC(=O)N[C@@H](CC(C)C)C(=O)N[C@@H](CCCCNC(=O)CC[C@H](NC(=O)CCCCCCCCCCCCCCC(=O)O)C(=O)O)C(=O)N[C@@H](CCC(N)=O)C(=O)N[C@H](C(=O)N[C@@H](CC(C)C)C(=O)N[C@@H](CC(C)C)C(=O)N[C@@H](CCCCN)C(=O)N[C@@H](CCC(N)=O)C(=O)N[C@@H](CCC(=O)O)C(=O)N[C@@H](CCCNC(=N)N)C(=O)N[C@@H](CCC(N)=O)C(=O)N[C@@H](CCCCN)C(=O)N[C@@H](CCCCN)C(=O)NC(C)(C)C(=O)N[C@@H](CCCNC(=N)N)C(=O)N[C@@H](CCC(=O)O)C(=O)N[C@@H](CCC(N)=O)C(=O)N[C@@H](C)C(=O)N[C@@H](CCC(=O)O)C(=O)N[C@H](C(=O)N[C@@H](CC(N)=O)C(=O)N[C@@H](CCCCN)C(=O)N[C@@H](CCC(N)=O)C(=O)N[C@H](C(=O)N[C@@H](CC(C)C)C(=O)N[C@@H](C)C(=O)N[C@@H](CCC(N)=O)C(=O)N[C@H](C(N)=O)C(C)C)[C@@H](C)CC)[C@@H](C)O)[C@@H](C)CC)[C@@H](C)CC)C(C)C)C(C)C
In the case of B1, in assay [1], the “EC50 [nM] 0% HSA (cAMP, HTRF)” value was over 100 nM and the “Emax (%) (100% = Sauvagine at 100 nM)” value stood at 21.6%. In assay [2], this molecule registered an EC50 [nM], 0% HSA (cAMP, HTRF) of 0.11 nM.

B2: peptide of SEQ ID NO: 198 (peptide)
peptide: IVLSLD[dV]PIKLK([AEEA-AEEA-γGlu-C16 diacid])QILLKQERQK[Aib]QREQAEKNKQILAQV-NH2
modifications: N-terminus assumed
SMILES: CC[C@H](C)[C@H](N)C(=O)N[C@H](C(=O)N[C@@H](CC(C)C)C(=O)N[C@@H](CO)C(=O)N[C@@H](CC(C)C)C(=O)N[C@@H](CC(=O)O)C(=O)N[C@@H](C(=O)N1CCC[C@H]1C(=O)N[C@H](C(=O)N[C@@H](CCCCN)C(=O)N[C@@H](CC(C)C)C(=O)N[C@@H](CCCCNC(=O)COCCOCCNC(=O)COCCOCCNC(=O)CC[C@H](NC(=O)CCCCCCCCCCCCCCC(=O)O)C(=O)O)C(=O)N[C@@H](CCC(N)=O)C(=O)N[C@H](C(=O)N[C@@H](CC(C)C)C(=O)N[C@@H](CC(C)C)C(=O)N[C@@H](CCCCN)C(=O)N[C@@H](CCC(N)=O)C(=O)N[C@@H](CCC(=O)O)C(=O)N[C@@H](CCCNC(=N)N)C(=O)N[C@@H](CCC(N)=O)C(=O)N[C@@H](CCCCN)C(=O)NC(C)(C)C(=O)N[C@@H](CCC(N)=O)C(=O)N[C@@H](CCCNC(=N)N)C(=O)N[C@@H](CCC(=O)O)C(=O)N[C@@H](CCC(N)=O)C(=O)N[C@@H](C)C(=O)N[C@@H](CCC(=O)O)C(=O)N[C@@H](CCCCN)C(=O)N[C@@H](CC(N)=O)C(=O)N[C@@H](CCCCN)C(=O)N[C@@H](CCC(N)=O)C(=O)N[C@H](C(=O)N[C@@H](CC(C)C)C(=O)N[C@@H](C)C(=O)N[C@@H](CCC(N)=O)C(=O)N[C@H](C(N)=O)C(C)C)[C@@H](C)CC)[C@@H](C)CC)[C@@H](C)CC)C(C)C)C(C)C
For the molecule B2, in assay [1], the “EC50 [nM] 0% HSA (cAMP, HTRF)” value is over 100 nM and the “Emax (%) (100% = Sauvagine at 100 nM)” value was 1.4%. Also, the EC50 [nM], 0% HSA (cAMP, HTRF) in assay [2] stood at 0.49 nM.

B3: peptide of SEQ ID NO: 191 (peptide)
peptide: IVLSLD[dV]PIKLK([γGlu-C16 diacid])QILLKQERQKKQREKAEKNKQILAQV-NH2
modifications: N-terminus assumed
SMILES: CC[C@H](C)[C@H](N)C(=O)N[C@H](C(=O)N[C@@H](CC(C)C)C(=O)N[C@@H](CO)C(=O)N[C@@H](CC(C)C)C(=O)N[C@@H](CC(=O)O)C(=O)N[C@@H](C(=O)N1CCC[C@H]1C(=O)N[C@H](C(=O)N[C@@H](CCCCN)C(=O)N[C@@H](CC(C)C)C(=O)N[C@@H](CCCCNC(=O)CC[C@H](NC(=O)CCCCCCCCCCCCCCC(=O)O)C(=O)O)C(=O)N[C@@H](CCC(N)=O)C(=O)N[C@H](C(=O)N[C@@H](CC(C)C)C(=O)N[C@@H](CC(C)C)C(=O)N[C@@H](CCCCN)C(=O)N[C@@H](CCC(N)=O)C(=O)N[C@@H](CCC(=O)O)C(=O)N[C@@H](CCCNC(=N)N)C(=O)N[C@@H](CCC(N)=O)C(=O)N[C@@H](CCCCN)C(=O)N[C@@H](CCCCN)C(=O)N[C@@H](CCC(N)=O)C(=O)N[C@@H](CCCNC(=N)N)C(=O)N[C@@H](CCC(=O)O)C(=O)N[C@@H](CCCCN)C(=O)N[C@@H](C)C(=O)N[C@@H](CCC(=O)O)C(=O)N[C@@H](CCCCN)C(=O)N[C@@H](CC(N)=O)C(=O)N[C@@H](CCCCN)C(=O)N[C@@H](CCC(N)=O)C(=O)N[C@H](C(=O)N[C@@H](CC(C)C)C(=O)N[C@@H](C)C(=O)N[C@@H](CCC(N)=O)C(=O)N[C@H](C(N)=O)C(C)C)[C@@H](C)CC)[C@@H](C)CC)[C@@H](C)CC)C(C)C)C(C)C
As to B3, in assay [1], the “EC50 [nM] 0% HSA (cAMP, HTRF)” value was over 100 nM and the “Emax (%) (100% = Sauvagine at 100 nM)” value is 12.5%. The molecule further registered an EC50 [nM], 0% HSA (cAMP, HTRF) in assay [2] of 2.68 nM.

B4: peptide of SEQ ID NO: 217 (peptide)
peptide: IVLSLD[dV]PIGLK([AEEA-AEEA-γGlu-γGlu-Palmitoyl])QILLKQERQKK[Aib]REQAETNKQILAQV-NH2
modifications: N-terminus assumed
SMILES: CCCCCCCCCCCCCCCC(=O)N[C@@H](CCC(=O)N[C@@H](CCC(=O)NCCOCCOCC(=O)NCCOCCOCC(=O)NCCCC[C@H](NC(=O)[C@H](CC(C)C)NC(=O)CNC(=O)[C@@H](NC(=O)[C@@H]1CCCN1C(=O)[C@H](NC(=O)[C@H](CC(=O)O)NC(=O)[C@H](CC(C)C)NC(=O)[C@H](CO)NC(=O)[C@H](CC(C)C)NC(=O)[C@@H](NC(=O)[C@@H](N)[C@@H](C)CC)C(C)C)C(C)C)[C@@H](C)CC)C(=O)N[C@@H](CCC(N)=O)C(=O)N[C@H](C(=O)N[C@@H](CC(C)C)C(=O)N[C@@H](CC(C)C)C(=O)N[C@@H](CCCCN)C(=O)N[C@@H](CCC(N)=O)C(=O)N[C@@H](CCC(=O)O)C(=O)N[C@@H](CCCNC(=N)N)C(=O)N[C@@H](CCC(N)=O)C(=O)N[C@@H](CCCCN)C(=O)N[C@@H](CCCCN)C(=O)NC(C)(C)C(=O)N[C@@H](CCCNC(=N)N)C(=O)N[C@@H](CCC(=O)O)C(=O)N[C@@H](CCC(N)=O)C(=O)N[C@@H](C)C(=O)N[C@@H](CCC(=O)O)C(=O)N[C@H](C(=O)N[C@@H](CC(N)=O)C(=O)N[C@@H](CCCCN)C(=O)N[C@@H](CCC(N)=O)C(=O)N[C@H](C(=O)N[C@@H](CC(C)C)C(=O)N[C@@H](C)C(=O)N[C@@H](CCC(N)=O)C(=O)N[C@H](C(N)=O)C(C)C)[C@@H](C)CC)[C@@H](C)O)[C@@H](C)CC)C(=O)O)C(=O)O
With B4, in assay [2], the EC50 [nM], 0% HSA (cAMP, HTRF) was 0.16 nM.

B5: peptide of SEQ ID NO: 216 (peptide)
peptide: IVLSLD[dV]PIGLK([AEEA-AEEA-γGlu-Palmitoyl])QILLKQERQKK[Aib]REQAETNKQILAQV-NH2
modifications: N-terminus assumed
SMILES: CCCCCCCCCCCCCCCC(=O)N[C@@H](CCC(=O)NCCOCCOCC(=O)NCCOCCOCC(=O)NCCCC[C@H](NC(=O)[C@H](CC(C)C)NC(=O)CNC(=O)[C@@H](NC(=O)[C@@H]1CCCN1C(=O)[C@H](NC(=O)[C@H](CC(=O)O)NC(=O)[C@H](CC(C)C)NC(=O)[C@H](CO)NC(=O)[C@H](CC(C)C)NC(=O)[C@@H](NC(=O)[C@@H](N)[C@@H](C)CC)C(C)C)C(C)C)[C@@H](C)CC)C(=O)N[C@@H](CCC(N)=O)C(=O)N[C@H](C(=O)N[C@@H](CC(C)C)C(=O)N[C@@H](CC(C)C)C(=O)N[C@@H](CCCCN)C(=O)N[C@@H](CCC(N)=O)C(=O)N[C@@H](CCC(=O)O)C(=O)N[C@@H](CCCNC(=N)N)C(=O)N[C@@H](CCC(N)=O)C(=O)N[C@@H](CCCCN)C(=O)N[C@@H](CCCCN)C(=O)NC(C)(C)C(=O)N[C@@H](CCCNC(=N)N)C(=O)N[C@@H](CCC(=O)O)C(=O)N[C@@H](CCC(N)=O)C(=O)N[C@@H](C)C(=O)N[C@@H](CCC(=O)O)C(=O)N[C@H](C(=O)N[C@@H](CC(N)=O)C(=O)N[C@@H](CCCCN)C(=O)N[C@@H](CCC(N)=O)C(=O)N[C@H](C(=O)N[C@@H](CC(C)C)C(=O)N[C@@H](C)C(=O)N[C@@H](CCC(N)=O)C(=O)N[C@H](C(N)=O)C(C)C)[C@@H](C)CC)[C@@H](C)O)[C@@H](C)CC)C(=O)O
For the molecule B5, the EC50 [nM], 0% HSA (cAMP, HTRF) in assay [2] came to 0.19 nM.
